Target: T1, purified recombinant Flag-tagged HER2 C-terminal domain (human, UniProt P04626 988-1255)
T1 construct: HER2, human, COOH-terminal domain; C-ter is defined as 988-1255 aa in the plasmid section; The results call this protein Flag-tagged; It may be the same construct as m14; source: HEK293T, transfected, purified (antibody bead column)
Assay: pull-down; purified GST fusion proteins and purified HER2 C-terminal domain; Glutathione sepharose 4B (GSH beads)
Conditions: both partners purified

- binding result: binds
B1: GST-T4 (domain or fragment, human, UniProt P08727 1-79, looked up)
chain: MTSYSYRQSSATSSFGGLGGGSVRFGPGVAFRAPSIHGGSGGRGVSVSSARFVSSSSSGAYGGGYGGVLTASDGLLAGN
notes: KRT19, human, T4 fragment (head domain); also called GST-T4 wt; source: E. coli, purified (Glutathione sepharose 4B column)

From PMC5180104, “Interaction of cytokeratin 19 head domain and HER2 in the cytoplasm leads to activation of HER2-Erk pathway” (Scientific Reports, 2016)
